Test results from patent US11872270B2, “A*03 restricted peptides for use in immunotherapy against cancers and related methods” (Immatics Biotechnologies GmbH, priority 2018, dated 2024).

The substances below were run against HLA-A*03:01 (Homo sapiens, UniProt P04439) (assay: MHC binding assay (UV-ligand exchange, β2m ELISA)). Conditions: not given.
Text: Candidate peptides for T cell based therapies according to the present invention were further tested for their MHC binding capacity (affinity). The individual peptide-MHC complexes were produced by UV-ligand exchange, where a UV-sensitive peptide is cleaved upon UV-irradiation and exchanged with the peptide of interest as analyzed. Only peptide candidates that can effectively bind and stabilize the peptide-receptive MHC molecules prevent dissociation of the MHC complexes. To determine the yield of the exchange reaction, an ELISA was performed based on the detection of the light chain (β2m) of stabilized MHC complexes. The assay was performed as generally described in Rodenko et al. (Rodenko et al., 2006) 96 well MAXISorp plates (NUNC) were coated over night with 2 ug/ml streptavidin in PBS at room temperature, washed 4× and blocked for 1 h at 37° C. in 2% BSA containing blocking buffer. Refolded HLA-A*02:01/MLA-001 monomers served as standards, covering the range of 15-500 ng/ml. Peptide-MHC monomers of the UV-exchange reaction were diluted 100-fold in blocking buffer. Samples were incubated for 1 h at 37° C., washed four times, incubated with 2 ug/ml HRP conjugated anti-β2m for 1 h at 37° C., washed again and detected with TMB solution that is stopped with […]. Absorption was measured at 450 nm. Candidate peptides that show a high exchange yield (preferably higher than 50%, most preferred higher than 75%) are generally preferred for a generation and production of antibodies or fragments thereof, and/or T cell receptors or fragments thereof, as they show sufficient avidity to the MHC molecules and prevent dissociation of the MHC complexes.

Substance	binding to HLA-A*03
AVCGGVLVH (listed as Homo sapiens) [SEQ ID NO: 272]	binds to HLA-A*03

Same assay, conditions: binding to HLA-A*03:01, UV-ligand exchange, β2m ELISA

Substance	Peptide exchange (MHC class I binding score, peptide exchange yield)
73 (RCFSGPYLNK; listed as Homo sapiens) [compound 73]	++++ (>75% = ++++)
160 (RLLPGKVVWK; listed as Homo sapiens) [compound 160]	++++ (>75% = ++++)
19 (ALAAKLEVK; listed as Homo sapiens) [compound 19]	++++ (>75% = ++++)
104 (AVVQGLVEK; listed as Homo sapiens) [compound 104]	++ (>20% = ++)
48 (KGWNGQIFK; listed as Homo sapiens) [compound 48]	+++ (>50 = +++)
6 (SIFGLAPGK; listed as Homo sapiens) [compound 6]	++++ (>75% = ++++)
183 (KVYIPPIINK; listed as Homo sapiens) [compound 183]	++++ (>75% = ++++)
253 (KLSLSHKK; listed as Homo sapiens) [compound 253]	+++ (>50 = +++)
84 (QLYSPPSPSYR; listed as Homo sapiens) [compound 84]	++++ (>75% = ++++)
152 (KIICGVHYLY; listed as Homo sapiens) [compound 152]	+ (>10% = +)
127 (GLAAGALLLY; listed as Homo sapiens) [compound 127]	++ (>20% = ++)
115 (AILHPFRAK; listed as Homo sapiens) [compound 115]	+++ (>50 = +++)
182 (QICLPAIYK; listed as Homo sapiens) [compound 182]	++++ (>75% = ++++)
156 (VSLGIAVSK; listed as Homo sapiens) [compound 156]	++ (>20% = ++)
13 (AVAFFVLPSK; listed as Homo sapiens) [compound 13]	++++ (>75% = ++++)
80 (ALCGTQLFY; listed as Homo sapiens) [compound 80]	++++ (>75% = ++++)
54 (GVTITKTLK; listed as Homo sapiens) [compound 54]	+++ (>50 = +++)
145 (SLFEGIYTIK; listed as Homo sapiens) [compound 145]	++++ (>75% = ++++)
202 (RLFPGLYLGY; listed as Homo sapiens) [compound 202]	+++ (>50 = +++)

Substance	Peptide exchange (MHC class I binding score, peptide exchange yield)
15 (RLYAPVVNISRL; listed as Homo sapiens) [compound 15]	+++ (>50 = +++)
23 (RLSPGPRAY; listed as Homo sapiens) [compound 23]	+++ (>50 = +++)
89 (VIYVICRHK; listed as Homo sapiens) [compound 89]	+++ (>50 = +++)
191 (SLYNLGGAK; listed as Homo sapiens) [compound 191]	++++ (>75% = ++++)
205 (RVYPRPPSK; listed as Homo sapiens) [compound 205]	++++ (>75% = ++++)
119 (RMGFRTLSK; listed as Homo sapiens) [compound 119]	++++ (>75% = ++++)
92 (KRIPFRPLAK; listed as Homo sapiens) [compound 92]	++ (>20% = ++)
142 (SPRVYWLGLNDR; listed as Homo sapiens) [compound 142]	+ (>10% = +)
203 (IVAFIPLSNK; listed as Homo sapiens) [compound 203]	++++ (>75% = ++++)
122 (LIGPLLICK; listed as Homo sapiens) [compound 122]	++++ (>75% = ++++)
95 (FLGLAFHPK; listed as Homo sapiens) [compound 95]	++ (>20% = ++)
43 (TVYDSIWCNMK; listed as Homo sapiens) [compound 43]	++++ (>75% = ++++)
189 (KVFEEPEDFLK; listed as Homo sapiens) [compound 189]	++ (>20% = ++)
153 (LASSPAGHK; listed as Homo sapiens) [compound 153]	+++ (>50 = +++)
129 (ALARVSSVKL; listed as Homo sapiens) [compound 129]	+++ (>50 = +++)
86 (RVSGSGGGGAGK; listed as Homo sapiens) [compound 86]	+++ (>50 = +++)
16 (KVFAEHKISY; listed as Homo sapiens) [compound 16]	+++ (>50 = +++)
62 (GIFPKIMPK; listed as Homo sapiens) [compound 62]	++++ (>75% = ++++)
118 (SLRGSFPILY; listed as Homo sapiens) [compound 118]	+ (>10% = +)

Substance	Peptide exchange (MHC class I binding score, peptide exchange yield)
223 (GISNPITTSK; listed as Homo sapiens) [compound 223]	++++ (>75% = ++++)
68 (KGPMAGILAY; listed as Homo sapiens) [compound 68]	++ (>20% = ++)
102 (RLLQHTPSAR; listed as Homo sapiens) [compound 102]	++++ (>75% = ++++)
114 (SLLTVSGAWAK; listed as Homo sapiens) [compound 114]	++++ (>75% = ++++)
76 (IINESLLFY; listed as Homo sapiens) [compound 76]	+++ (>50 = +++)
93 (SVEGLSRRLK; listed as Homo sapiens) [compound 93]	+++ (>50 = +++)
35 (VLLLLSLLH; listed as Homo sapiens) [compound 35]	++ (>20% = ++)
10 (KARDLRTPK; listed as Homo sapiens) [compound 10]	+++ (>50 = +++)
47 (ALFGNALVFY; listed as Homo sapiens) [compound 47]	++++ (>75% = ++++)
99 (RTYTCQVTY; listed as Homo sapiens) [compound 99]	++++ (>75% = ++++)
179 (KINPTASLK; listed as Homo sapiens) [compound 179]	+++ (>50 = +++)
192 (RSYSHVVLK; listed as Homo sapiens) [compound 192]	++++ (>75% = ++++)
193 (IVYPSATDKTK; listed as Homo sapiens) [compound 193]	+++ (>50 = +++)
88 (GTHVWVGLYK; listed as Homo sapiens) [compound 88]	++++ (>75% = ++++)
78 (KTGTFVLYKS; listed as Homo sapiens) [compound 78]	+++ (>50 = +++)
85 (IMPTFDLTK; listed as Homo sapiens) [compound 85]	+ (>10% = +)
217 (RVYEGDGRNSLK; listed as Homo sapiens) [compound 217]	+++ (>50 = +++)
187 (KTCQVSGLLY; listed as Homo sapiens) [compound 187]	++++ (>75% = ++++)
26 (QLGYQAAVLK; listed as Homo sapiens) [compound 26]	+++ (>50 = +++)
